B1: 17bp-5T TDN (tetrahedral DNA nanostructure with Aβ-42 aptamer) (structured_DNA)
DNA 1: AGTCTAGGATTCGGCGTGGGTTAATTTTTTGCTGCCTGTGGTGTTGGGGCGGGTGCGTTTTTACATTCCTAAGTCTGAAACATTACAGCTTGCTACACGAGAAGAGCCGCCATAGTA
DNA 2: TATCACCAGGCAGTTGACAGTGTAGCAAGCTGTAATAGATGCGAGGGTCCAATAC
DNA 3: TCAACTGCCTGGTGATAAAACGACACTACGTGGGAATCTACTATGGCGGCTCTTC
DNA 4: TTCAGACTTAGGAATGTGCTTCCCACGTAGTGTCGTTTGTATTGGACCCTCGCAT
modifications: 5' NH2-C6 on strands B17, C17, D17
B2: ss-DNA aptamer (Aβ-42 aptamer) (ssDNA)
DNA: AGTCTAGGATTCGGCGTGGGTTAATTTTTTGCTGCCTGTGGTGTTGGGGCGGGTGCG
modifications: 5' NH2-C6

Assays:
[1] = target: T1, Aβ-42 (amyloid beta 1-42) (UniProt P05067 672-713); test: G-FET (VDirac shift, Hill fit); pseudo KD; 12.5 mM Mg2+; PBS; 1x PBS with 12.5 mM Mg2+, pH 7.0-7.4, room temperature; or full serum; probe immobilized on graphene FET; conditions: protein: commercial; DNA tetrahedron of 4 strands, six 17 bp edges, pendant aptamer with 5T spacer
[2] = target: T1, Aβ-42 (amyloid beta 1-42); test: G-FET (VDirac shift, Ids-t); full serum; 1x PBS with 12.5 mM Mg2+, pH 7.0-7.4, room temperature; or full serum; probe immobilized on graphene FET; conditions: protein: commercial; DNA tetrahedron of 4 strands, six 17 bp edges, pendant aptamer with 5T spacer
[3] = target: T1, Aβ-42 (amyloid beta 1-42); test: G-FET (VDirac shift, Hill fit); five orders of magnitude weaker than TDN; 12.5 mM Mg2+; SI captions say insulin; 1x PBS with 12.5 mM Mg2+, pH 7.0-7.4, room temperature; or full serum; probe immobilized on graphene FET; conditions: protein: commercial

T1 sequence (P05067 672-713): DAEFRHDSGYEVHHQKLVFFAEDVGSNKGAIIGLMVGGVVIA

Row | Binder | binding result [1] | binding result [2] | binding signal [3]
1 | B1 | binds | binds | –
2 | B2 | – | – | ~100000 fold higher pseudo KD than TDN
